In US5614400:

Tests used:
[1] = molecular target: [1-^14 C]14:0-ACP (myristoyl-acyl carrier protein made with Escherichia coli ACP) (Escherichia coli) (UniProt P0A6A8)
[2] = molecular target: [1-^14 C]16:0-ACP (palmitoyl-acyl carrier protein made with Escherichia coli ACP) (Escherichia coli) (UniProt P0A6A8)

With “100,000×g supernatant of a T. alata endosperm homogenate (soluble Δ^6 16:0-ACP desaturase activity) (pool or library)” the Δ^6 monounsaturated product, specific activity (pmol/min/mg protein) [1] was 13 and the Δ^6 monounsaturated product, specific activity (pmol/min/mg protein) [2] was 99.
